{"source": "the DeepSol protein solubility set"}
{"assay": "soluble on expression in E. coli; label from the status in PepcDB or PDB records"}
{"sequence": "MGILDHPSSSSGIQSGGGTFGIDWAKWFPPVTSRSFLSHYLPASGALSHTLYTVHLFSPNIISSLFPTGDLAVSNTILFNANVGLGFYVYFRRHLHRVNPWERVEFSVLSSTLFNFGSLLAAVLIKALIPAKSPTWLKSLTATVLSGYLLSRAAKYMGILDHRSSRGSVSPARSVLSRRQTASRSSHAAEVTPPPASYAPETPRSVASTSYYSPSELHLDTTSSVQLETPPQSHESGSFMPMTPSATEHSSSEFGQDLEDAGDRHENYRYLHSYALNNLNHSRPKKETILRRTTMNQKNQLATPQKQLRRSSETMAPMCFVTPEPSWKELDVGVYTPPPSRMDFTPQASKKLTKSSKSVKIIQKKSRRIPNEKDDFDRFLDAVQWHAPLILVPVAFGCWITGSVPILSPTLRFIFA", "soluble on expression in E. coli": "not soluble"}
{"sequence": "MGILETLVLKEKINGTEKAVIFRELIKKEMELLNDYCAKNHLFPKDYRIEFCHLHNIKKVNIARLLTILKYYDPRFIEILMSTDPKVRTFIQYFMEFLEKHPYFEDVLEPQNLFGNWDYIRYKLKILFPQLTFEEIDRFKFKRKEFINYVKEKLGEPEELIEDKLNLATWYESVPYLELESEMTPGVHPDPVMTPEEWSFIKRHIKGRKNIIIRDPDTGKEKLVYVEVDIPDEELDKYYKNREGLKKLLMERYNIDESGAEQILRKAGWEATGWHIVPPVHTDVEVVYPEEEKKEEKKVEVKREPFDIMELAKHIRYLGGRELEMLNYYELVHDKVPEIHEKLHMFMRTKRRLLGKLFGIYYTVDPVMAEAILINDPENIELLKSLTISTGLRDKKFSIYDSSKVWNEIKRRVRFIFPEVSEEEIEKFKGKRSEFVTYLAQKLGKPEEYIDERLERAGWLRSEEIPAFIRHVGP", "soluble on expression in E. coli": "not soluble"}
{"sequence": "MGIMADRLASMVVKATSPDGQIEGELRDRDAVSVAFRGDTYRHYTEYSLGTQLSRLALRMWTGYQRGYDEAVAEATGRPVSRSQETWDANRRRFRQEQAATTVTGMSTDGWIYIQNTGMTSWHVVIRQGTLSKLDEDQFVAELMDAYNTMITEYRFATADLRAKHYGVSFQPRNPPVKELRA", "soluble on expression in E. coli": "not soluble"}
{"sequence": "MGIYEAIQATIKEAMKARDERTLAFARVVKAELDRKGDGKPLPDEEAVKVLKALKEIALEQGNAFEAEFLDRFLPKEMSEEELEAWIREHVDLSQFKNPLAAIGVVTKALGPKAPGEKVRKVIERLTR", "soluble on expression in E. coli": "soluble"}
{"sequence": "MGKEYPYGLLRCFVRRIGKPTDSPRMTSAPTSNQSNPAWSRDELVLALNLYLLHRNGLPGVNHPDVLALSQALNLIGNATGVSKNQSFRNANGVCMKLNNFRRWDPSYTNNGRTGLAKGNKDEQLVWLEFANDPERLAEVVAAINANVQMIPASPIDLSAADDPGFFEAEEGKVLTRVHRVRERDKKIVKRKKEEALTQHGALQCEACGFNFSQTYGADVEGVIDVHHTKPLHTLQPGDKTKLADLALLCANCHRVLHSQRKWLSVAEVKERYQANLKQIQMLEHHHHHH", "soluble on expression in E. coli": "soluble"}
{"sequence": "MGKFLVQFWGVRGLIPTPSSNTSRYGGNTACVEMQVAGKRLIFDGGTGLRILGKAWQHLQQPLEAHLFFTNSQSNRIQGFPFFAPAFIAGNCFHIYGGAASNGASIKQCLCDQMLQPHFPYPLQVMQSELQFYPLTPDSEVKLDDVTIRTALINQTQRSIGYRVTWQEYSVAYVTDLNMSAEQGEREQVLQIIQDVDLLIANATYTPPTSHDHESVDLLWQAAVEMAQKAGVRKLIISHHHPDDHDDFLDQVEKEVQSTFSDALLACEGLALPVFLEHHHHHH", "soluble on expression in E. coli": "not soluble"}
{"sequence": "MGKPTGFLEYTREIPQELSPGDRLRNWDEFHVTMPDKQVETQGARCMDCGTPFCHTGSLISGMASGCPINNLIPEFNDLVYRGLWREALDRLHKTNNFPEFTGRVCPAPCEGSCVLGINNPPVTIKNIEYSIIEKGWQEGWVTPEPPAKRTGKKVAVVGSGPAGLAAAAQLNKAGHWVTVYEREDRPGGLLMYGIPNMKLDKEEVVLRRLNVLEAEGVTFVCNTEIGKDLPPETLLKDYDAVVLCTGATKPRDLAIAGRELEGIHFAMEFLTANTKAILDKTPGPNFISAKDKDVVIIGGGDTGTDCVGTSLRHGCRSLVQLEIMPKPPEERAANNPWPEWPKVYKMDYGQEEAAAVYGHDPRSYLTTATKIEGDDQGRVKAVHTVDVRWEKDGQGRFIPQQVAGTEQVRPAQLVLLAMGFVGPESQLLDAMKLDKDARGNIKAEYGQYETSIPGVFAAGDCRRGQSLVVWAFNEGRGAAKACDLYLMGETDLPLEHHHHHH", "soluble on expression in E. coli": "not soluble"}
{"sequence": "MGKTYNVTRIIKLEVRDRIIPPTMKLPEGVVTSIGSNLTITCRVSLRLPTTDADVFWISNGMYYEEEDEDGDGRISVANKIYMTDKRRVITSWLNINPVKEEDATTFTCMAFTIPSISKTVTVSIT", "soluble on expression in E. coli": "not soluble"}
{"sequence": "MGLCISKHSGSSYSYSDRDHWEVPVNPSNVRAVSSHQTASASDRASDKVDERPATFSHFQLARCGEDYTLSMVSLAAYQAERRHRGNLIKDRSQSALPWVQVYHSETGLNYSFQIDRTTTVKVAGFNYNVPNDGKTRHLYSAGTSQVNMPVIADNMSACIAVACAAENVDAGTG", "soluble on expression in E. coli": "not soluble"}
{"sequence": "MGLELPLILGTSSVFRREQMERLGIAFQAASPDFDETPMLGESAPQTALRLAEGKARSLTGRFPEALIVGADQVAWCDGRQWGKPMNLANAQKMLMHLSGREIEFYSAIVLLNTVTGRMRRHIDKTVVVMRQLDELHILRYLEREPDAVYCSCALKSEDLGALLIERIESTDPNALIGLPVFRLVDFLKNEGVEVL", "soluble on expression in E. coli": "not soluble"}
{"sequence": "MGLFDRLKRVVGANVNDLINKAEDPEKMLEQAILEMQEDLVQLRQGVAQAIAAQKRTEKQYNDAQNEINKWDRNARLALQKGDENLARQALERKKSFTDTSTSLKTSLDQQTIQVDTLKKNLIQLESKISEAKTKKEMLKARITAAKAQEQLGSMVVSMNSSSAMAAFERMEEKVLMQEARAQSTAELVGADLETQFAQLESGSDVDDELAALKASMLPPAPAPQGQLPPSQATTAKPTEPIDSDLEALKRQLDQM", "soluble on expression in E. coli": "not soluble"}
{"sequence": "MGLSTSNKPLSERIEESKKDVFMQKAVAKAQDAQWEKREGAREALGNWPQWRELGEQIRQHTIQYLPDYLEEFSDNVAKRGGKVFFAQTAEEANEYVKQVVLEKKAKKIVKSKSMVTTEVDIDPMLLGLDDVSVMETDLAEFILQMDDWDEPSHIVFPSIHKNREQIRQVFAKKLGYQGDNDPVNLARCAREVMRKFFLEAEIGITGCNFAIADSGLINLNTNEGNADLTISIPKTQIVLMGMERIVPTMREAEVLDNLLARSAVGQNLTTYVTFAGQKNADESDGPEEFHVVILDNGRSKALGTAFQPVLQCIRCGSCLNVCPVYRHIGGHGYGSIYPGPIGAVLSPILGGYKQFGELPYASSLCGACTETCPVKIPLHELLIEHRKVMTDDLKMKHGFEDFQMRMVGKATGSPAMFKAAMKVDHAAAGILSKQKDITVENMYNHGGYLDKGPGLVKGWTDVRDLPRPPKSSENFRSWFKKHQEGEKND", "soluble on expression in E. coli": "not soluble"}
{"sequence": "MGLTFENNTIENFDVQATFGMMNFLEVVAINERDGENNVTEEVREQRVTVYSSKLNDQVEIVIDPDYDVSGINYDDEIELTGNVTARGWLYTFKGYNDNVQTEQAFKVRAAGIKKVGAVKQTQAPQPKEKQENKQ", "soluble on expression in E. coli": "not soluble"}
{"sequence": "MGMAAESQFHVLAVDDSLFDRKLIERLLQKSSCQVTTVDSGSKALEFLGLRQSTDSNDPNAFSKAPVNHQVVEVNLIITDYCMPGMTGYDLLKKVKESSAFRDIPVVIMSSENVPARISRCLEEGAEEFFLKPVRLADLNKLKPHMMKTKLKNQKLEEIETTSKVENGVPTAVADPEIKDSTNIEIEILPLQQDLLLVQQEEQTLSINNKRKSVEEGISTDRARPRFDGIATAV", "soluble on expression in E. coli": "not soluble"}
{"sequence": "MGMSATMGDSASIPGVFFADFGPAPPEITPEGYHEVELNKTKWVLPQWYNSLKPLGEGAYGVVCTAEYEPTGDRVAIKKFFRPFQSTIHAKRTYRELKLLRTLQHDNVLEMIDVFTPDPDASSLNNVYFVSVLMGSDLQNIMKIQRLTDEQIQLLIYQVLRGLKYIHSAGIIHRDLKPSNIAVNERCEVKVFLSFSQLSFLILSFFKILDFGLARAQDAEMTGYVATRWYRAPEIMLNWMHYTQTVDVWSVGCILAELVSGRPLFPGDDHIDQLTKIMSVVGTPKEEFWSKIQSEEARNYIKNRSPIIRQDFVTLFPMASPYALELLEMMLILDPDRRISVSSALRHDYLREYSVPNDEPVAMDTVINSIVTIDPAEERATTLSDWRELIWNEIRLFQNSARRLSFVSCTDTEEEPMKI", "soluble on expression in E. coli": "not soluble"}
{"sequence": "MGMSSLRDLGLSEYEARAYRSLLETGPTTAKELSRASDVPMGRIYDVLNSLETYNLVRSQTASRPKKYVAVEPDTALDRLLEDKKRELQEKVGQYEEIVDDLSSQLESADPVEEPFWTAAVGPDNSLDLLLERLAAADDEIIMVGSAPARQVDILSGTERIVDELEAALERGVEVSLLVRPDLFESLPEEANREYYERLFHYDNYSARASPNIRTTFELLDGVEVCIEVPHPLGREETFGVIDMKDSDFTADISQAFEEHWAEAKPVGPP", "soluble on expression in E. coli": "not soluble"}
{"sequence": "MGMVSDAVIRHQGKVIAVYPDGILPLEPPRQNASQLYLTSGMDERKRKLIDLGEAFVILAGGFGTMEESFQLLTEMSINQTAVRPVIFVGRKFYQPLFDLLRLQLKEGMISKEVIDAISLVDTAEETIELLGDLKLEQVVLEHHHHHH", "soluble on expression in E. coli": "not soluble"}
{"sequence": "MGNIGSPPKFDEYPNGNEEPRRVLRLNVYFDNPVQNKDGAYDDRGGFWAPVDWWHRDAERWATLFAKGMRVAVRGHLERDDWTDGDGEPHTTYKVDARSVGILPYRLDAVHLSPLEHHHHHH", "soluble on expression in E. coli": "not soluble"}
{"sequence": "MGNIVKPFKQQPSSFAYQPLTVPLIPEVEAQSENLRVFSFKEWMKATKKSRQDRVVIRDDHYIRSFYKGYIDNTTFAPSRTKTGTPVSVVEYLHGSSQALQEWVDIFGVILLELLVGSQDRSTALKNQSSDWTGSFLPDNYKIGEIIDPRIGSDYPVDAATKIGLGPNVRCPYIGHRDMDKC", "soluble on expression in E. coli": "soluble"}
{"sequence": "MGNKLFVLDLGEIRVDENFIIANSTFVTPQKPTVSSRLIDIPVSAYLIQCTDATVLYDTGCHPECMGTNGRWPAQSQLNAPYIGASECNLPERLRQLGLSPDDISTVVLSHLHNDHAGCVEYFGKSRLIAHEDEFATAVRYFATGDHSSPYIVKDIEAWLATPRNWDLVGRDERERELAPGVNLLNFGTGHASGMLGLAVRLEKQPGFLLVSDACYTATNYGPPARRAGVLHDTIGYDRTVSHIRQYAESRSLTVLFGHDREQFASLIKSTDGFYE", "soluble on expression in E. coli": "soluble"}
{"sequence": "MGNMWGKNRGAVERFQTRREALFDDFKSRSAPASLVNNPRIVKGNETAEQIETTFNEILKLDLIALKSALQTDKYNAYTVLCAFVWRAIDVNSEINCITEVIREAFNTAEALDDNYAQTGEKGQLFGLPFSVKSNFYMENYDVTVGLAKLLEQPKTTTCPMVQFLSDQGAVPFCLTNVPQGLLSYVSSNPIYGTTKNPWDFSRTPGGSSGGEAALLAAGGAAFGIGSDLAGSLRIPAAFCGLVTLKPTQDRLCVTDTHGGLPGRGRLGLSFGFYTRSVKEQEFLLGLIVGRSEYLELCPMSSPAKLEKHIEKDQKLVIGWFVDDGFNPVVPSNRRAVEETVKSLQAKGHQVVELKLADVSEEFPPFAVADMLFRNVMPDNGAYMSEMYAGEQYDEHMKLFIRLVCLKQNFLVSFLLRYGVMPFAKLALSKRLACIGSAYNSDLAACRQNQENTDSYKLQWIRYWKSKKIDALICPSFITPAQPFEYPAQLSNGAFITGLFNMLDVPAGVVPVSPVNQKDVDQLIDGFSTEGDLLLKKQREAARGTTGLPNAVQVVTLPNCEEMCLRVMRLVEESAEGVQRLQWRVGASAAPIDVENTPAGVVSSLEHFERVNLLH", "soluble on expression in E. coli": "not soluble"}
{"sequence": "MGNTDKLMNQIFELKFTSKSLQRQARKCEKEERSEKLKVKKAIEKGNMDGARIYAENAIRKRSEQMNYLRLSSRLDAVVARLDTQAKMATITKSMTNIVKSLESSLTTGNLQKMSETMDSFEKQFVNMEVQAEFMDNAMAGSTSLSTPEGEVNSLMQQVADDYGLEVSVGLPQPAGHAIPTKTEEKVEEDDLTRRLAELKARG", "soluble on expression in E. coli": "not soluble"}
